Drawing on publication PMC10132759, this text covers Kd for five substances.

N-WASP without a tag, sequence (Q95107 whole entry): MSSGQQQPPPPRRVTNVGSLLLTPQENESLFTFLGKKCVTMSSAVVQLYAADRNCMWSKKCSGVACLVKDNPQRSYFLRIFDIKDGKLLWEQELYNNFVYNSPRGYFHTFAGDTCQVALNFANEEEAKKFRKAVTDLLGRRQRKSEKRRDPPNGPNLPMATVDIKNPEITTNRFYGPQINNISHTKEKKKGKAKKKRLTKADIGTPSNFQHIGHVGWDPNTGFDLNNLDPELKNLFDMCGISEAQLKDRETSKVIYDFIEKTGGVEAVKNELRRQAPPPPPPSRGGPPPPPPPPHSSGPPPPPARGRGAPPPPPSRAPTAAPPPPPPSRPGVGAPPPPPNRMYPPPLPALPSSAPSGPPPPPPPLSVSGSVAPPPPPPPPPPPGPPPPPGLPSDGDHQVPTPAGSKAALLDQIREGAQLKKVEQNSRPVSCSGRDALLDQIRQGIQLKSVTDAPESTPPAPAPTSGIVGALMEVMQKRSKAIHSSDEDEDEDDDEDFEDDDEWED

The test addresses GAS7b-Avitag, biotinylated (mouse) (UniProt Q60780). As to the kind of experiment: BLI; BLItz; 0.1 μM biotinylated Avi-tagged GAS7b, Nck or WISH captured on streptavidin (SAX) biosensors; 0.25 μM WASP or its mutants as analyte; 10 mM tris-HCl pH 7.5, 150 mM NaCl, 1 mM EDTA; local fit to a 1:1 model, Kd = Koff/Kon; n = 3. Background: In BLI a coated tip is dipped into the sample, and binding shifts an interference pattern.
For the substance “N-WASP without a tag (from UniProt Q95107 1-505) (natural protein)”, the Kd (as a rule, the free concentration of one partner at which half of the binding sites on the other are occupied at equilibrium, for simple one-to-one binding) came to 4.23 nM.
Turning to “WASP (FLAG tag) (from UniProt P42768 1-502) (natural protein)”, the Kd worked out at 4.11 nM.
As for “WASP P359T (FLAG tag) (from UniProt P42768 1-502) (natural protein)”, the Kd was 6.89 nM.
For the substance “WASP P373S (FLAG tag) (from UniProt P42768 1-502) (natural protein)”, the Kd turned out to be 15 nM.
In the case of “WASP S339Y (FLAG tag) (from UniProt P42768 1-502) (natural protein)” it was 7.13 nM.
